In patent US8597922B2, “Methods and compositions for producing olefins” (LS9, Inc., priority 2007, dated 2013):

Assay: Specific activity of α-olefin and α/β-hydroxy fatty acid formation by purified enzymes
Format: biochemical
Settings: 500 μM H2O2, 200 μM potassium hexadecanoate
Protocol: The specific activity of α-olefin formation as well as α-(2) and β-(3)hydroxy fatty acid formation were determined for ORF880, CYP152A1, and CYP152A1 Q85H (see Examples 12 and 16). An E. coli BL21 strain (DE3) (Invitrogen) was transformed with either pET15b-orf 880, pET15b-cyp152A1, and pET15b-cyp152A1 Q85H using routine chemical transformation techniques. Protein expression was carried out by first inoculating a colony of the E. coli strain in 5 mL of LB media supplemented with 100 mg/L of carbenicillin and shaken overnight at 37° C. to produce a starter culture. This starter culture was used to inoculate 0.5 L of LB media supplemented with 100 mg/L of carbenicillin. The culture was shaken at 37° C. until an OD600 value of 0.6 was reached. The culture was placed on ice for 10 min before IPTG was added to a final concentration of 250 μM. The culture was shaken at 25° C. for approximately 18 h, and then centrifuged at 3,700 rpm for 20 min at 4° C. The pellet was then resuspended in 10 mL of buffer containing 100 mM sodium phosphate buffer at pH 7.2 supplemented with Bacterial ProteaseArrest (GBiosciences). The cells were then sonicated at 12 W on ice for 9 sec with 1.5 sec of sonication followed by 1.5 sec of rest. This procedure was repeated 5 times with one min intervals between each sonication cycle. The cell free extract was centrifuged at 10,000 rpm for 30 min at 4° C. 5 mL of Ni-NTA (Qiagen) was added to the supernatant, and the mixture was gently stirred at 4° C. The slurry was passed over a column removing the resin from the lysate. The resin was then washed with 30 mL of buffer containing 100 mM sodium phosphate buffer at pH 7.2 plus 30 mM imidazole. Finally, the protein was eluted with 15 mL of 100 mM sodium phosphate buffer at pH 7.2 plus 250 mM imidazole. The protein solution was dialyzed with 200 volumes of 100 mM sodium phosphate buffer at pH 7.2 with 20% glycerol. Protein concentration was determined using the Bradford assay (Biorad). 578 μg/mL of ORF880, 865 μg/mL of CYP152A1, and 653 μg/mL of CYP152A1 Q85H protein was obtained.
To determine the specific activity with potassium hexadecanoate, the following reactions were set-up where each time point consisted of 500 μL. Each reaction contained of 500 μM H2O2, 200 μM of potassium hexadecanoate, 100 mM sodium phosphate buffer at pH 7.2, and protein at the following concentrations: ORF880-0.23 or 0.46 μM; CYP152A1-8.65, 17.3, or 34.6 μM; CYP152A1 Q85H-6.53, 13.06, or 26.12 μM. The reactions were carried out at room temperature and time points were taken at 0, 1, 3, 5, 7, 10, 14, and 20 minutes. Reactions were quenched with 50 μL of 12 M HCl and then extracted with 200 μL of ethyl acetate. 50 μL of this extract was then reacted with 50 μL N,O-Bis(trimethylsilyl)trifluoroacetamide with trimethyl-chlorosilane (Aldrich). Samples were analyzed using GC/MS using the following parameters: run time: 20 min; column: HP-5-MS Part No. 190915-433E (length of 30 meters; I.D.: 0.25 mm narrowbore; film: 0.25 μM); inject: 1 μL Agilent 6850 inlet; inlet: 300° C. splitless; carrier gas: helium; flow: 1.3 mL/min; oven temp: 100° C. hold 5 min, 320° C. at 20° C./min, 320° C. hold 5 min; det: Agilent 5975B VL MSD; det. temp: 300° C.; scan: 50-500 M/Z. Calibration curves were generated using 1-pentadecene, α(2)-hydroxyhexadecanoic acid, and β(3)-hydroxyhexadecanoic acid dissolved in ethyl acetate and derivatized as described herein.
Based upon this analysis, product formation was determined to be linear within the first three minutes. The specific activities for each enzyme concentration in the linear range were averaged for a given reaction (e.g., decarboxylation, α-hydroxylation, or β-hydroxylation). FIG. 21 summarizes the results. The specific activity for 1-pentadecene formation was similar for ORF880 and CYP152A1. Mutating the glutamine 85 residue to a histidine increased the specific activity of 1-pentadecene formation (i.e., increased fatty acid decarboxylase activity). […]

B1: ORF880: olefin-producing enzyme (fatty acid decarboxylase) from Jeotgalicoccus sp. ATCC 8456, SEQ ID NO:2 (protein)
chain: MATLKRDKGLDNTLKVLKQGYLYTTNQRNRLNTSVFQTKALGGKPFVVVTGKEGAEMFYNNDVVQREGMLPKRIVNTLFGKGAIHTVDGKKHVDRKALFMSLMTEGNLNYVRELTRTLWHANTQRMESMDEVNIYRESIVLLTKVGTRWAGVQAPPEDIERIATDMDIMIDSFRALGGAFKGYKASKEARRRVEDWLEEQIIETRKGNIHPPEGTALYEFAHWEDYLGNPMDSRTCAIDLMNTFRPLIAINRFVSFGLHAMNENPITREKIKSEPDYAYKFAQEVRRYYPFVPFLPGKAKVDIDFQGVTIPAGVGLALDVYGTTHDESLWDDPNEFRPERFETWDGSPFDLIPQGGGDYWTNHRCAGEWITVIIMEETMKYFAEKITYDVPEQDLEVDLNSIPGYVKSGFVIKNVREVVDRT
modifications: Jeotgalicoccus sp. ATCC8456
- rate of hydroxyhexadecanoic acid production relative to the rates of the two CYP152A1 enzymes: about 1/50
- specific activity for 1-pentadecene formation (pH 7.2, room temperature, comparison between enzymes): similar
